# Data as given in IntAct's records for PubMed 18997771.
# B1: Vascular endothelial growth factor receptor 2 (Mus musculus), P35918 (parent)
# chain: MESKALLAVALWFCVETRAASVGLPGDFLHPPKLSTQKDILTILANTTLQITCRGQRDLDWLWPNAQRDSEERVLVTECGGGDSIFCKTLTIPRVVGNDTGAYKCSYRDVDIASTVYVYVRDYRSPFIASVSDQHGIVYITENKNKTVVIPCRGSISNLNVSLCARYPEKRFVPDGNRISWDSEIGFTLPSYMISYAGMVFCEAKINDETYQSIMYIVVVVGYRIYDVILSPPHEIELSAGEKLVLNCTARTELNVGLDFTWHSPPSKSHHKKIVNRDVKPFPGTVAKMFLSTLTIESVTKSDQGEYTCVASSGRMIKRNRTFVRVHTKPFIAFGSGMKSLVEATVGSQVRIPVKYLSYPAPDIKWYRNGRPIESNYTMIVGDELTIMEVTERDAGNYTVILTNPISMEKQSHMVSLVVNVPPQIGEKALISPMDSYQYGTMQTLTCTVYANPPLHHIQWYWQLEEACSYRPGQTSPYACKEWRHVEDFQGGNKIEVTKNQYALIEGKNKTVSTLVIQAANVSALYKCEAINKAGRGERVISFHVIRGPEITVQPAAQPTEQESVSLLCTADRNTFENLTWYKLGSQATSVHMGESLTPVCKNLDALWKLNGTMFSNSTNDILIVAFQNASLQDQGDYVCSAQDKKTKKRHCLVKQLIILERMAPMITGNLENQTTTIGETIEVTCPASGNPTPHITWFKDNETLVEDSGIVLRDGNRNLTIRRVRKEDGGLYTCQACNVLGCARAETLFIIEGAQEKTNLEVIILVGTAVIAMFFWLLLVIVLRTVKRANEGELKTGYLSIVMDPDELPLDERCERLPYDASKWEFPRDRLKLGKPLGRGAFGQVIEADAFGIDKTATCKTVAVKMLKEGATHSEHRALMSELKILIHIGHHLNVVNLLGACTKPGGPLMVIVEFCKFGNLSTYLRGKRNEFVPYKSKGARFRQGKDYVGELSVDLKRRLDSITSSQSSASSGFVEEKSLSDVEEEEASEELYKDFLTLEHLICYSFQVAKGMEFLASRKCIHRDLAARNILLSEKNVVKICDFGLARDIYKDPDYVRKGDARLPLKWMAPETIFDRVYTIQSDVWSFGVLLWEIFSLGASPYPGVKIDEEFCRRLKEGTRMRAPDYTTPEMYQTMLDCWHEDPNQRPSFSELVEHLGNLLQANAQQDGKDYIVLPMSETLSMEEDSGLSLPTSPVSCMEEEEVCDPKFHYDNTAGISHYLQNSKRKSRPVSVKTFEDIPLEEPEVKVIPDDSQTDSGMVLASEELKTLEDRNKLSPSFGGMMPSKSRESVASEGSNQTSGYQSGYHSDDTDTTVYSSDEAGLLKMVDAAVHADSGTTLRSPPV
# Variants of: B1
# Conditions: with pgfrb_human PDGFRB
row,Variant,effect of a mutation on the interaction
1,Y1052F;Y1057F,disrupting interaction
